Literature values, collected in article PMC4186963.

Molecular target: CD28 (Homo sapiens) (UniProt P10747)

Question: Which Kd does the source give for CD80 (from UniProt P33681) here?
Answer: Its Kd is 200 nM.
